Results on one molecule are retold here after patent US7790845B2, “Bacterial ion channel” (Children's Medical Center Corporation, priority 2001, dated 2010).

Common to all, as to type: cell-based
In test [1] the test system is CHO-K1 or COS-7 cells. Put plainly: Ion selectivity and relative permeability of NaChBac (Example 1). The text has this: The internal pipette solution used in determining the relative permeability of K^+ and Ca^2+ contained (in mM) 133 Cs-methanesulfonate, 5 CsCl, 10 EGTA, 10 HEPES (pH adjust to 7.2 with CsOH). External solution for K^+ permeability experiments contained 142 KCl, 10 HEPES, 10 glucose (pH 7.3 adjusted with KOH). External solution for Ca^+ permeability determinations contained 105 CaCl2, 10 HEPES, 20 glucose (pH 7.3, adjusted with Ca(OH2). The external solution used to study Ma^+ permeability contained (in mM): 140 NaCl, 5CsCl, 10 HEPES, 10 glucose (pH 7.3, adjusted with NaOH). Internal solutions were the same as described in the Detection of Current example. The relative permeability of Cs^+ versus Na^+ was calculated according to: PCs/PNa=([Na]o−[Na]iexp(ErevF/RT)/([Cs]iexp(Erev/RT)/([Cs]o) (1)
The relative permeabilities of K^+ and Ca^2+ were evaluated under bi-ionic conditions, and the relative permeability of K^+ and Ca^2+ to Cs^+ was calculated according to the following equations: Pk/PCs=[Cs]iexp(ErevF/RT)/[K]o (2) PCa/Pcs=([Cs]iexp(ErevF/RT){exp(ErevR/RT)+1}/4[Ca]o) (3)
INaChBac was weakly permeant to Ca^2+; no significant difference in current was observed by sequential perfusion with bath solution containing 1 and 10 mM [Ca^2+]o (FIG. 3B). In isotonic [Ca^2+]o (cations replaced with 105 mM Ca^2), in the inward current was <6% of that in normal [Na^+] (7.6±0.9 pA/pF at −10 mV, n=8; FIG. 3B). In contrast, INaChBac, amplitude correlated well with [Na^+]o (FIG. 3C, D). […] To estimate the relative ion selectivity of the channel, we measured changes in reversal potential while changing ionic composition. The calculated relative selectivity (±SEM) of NaChBac based on measured Erev was: PNa/PCa=72±10 (n=12); PNa/PCs=383±56(n=8); PNa/PK=171±16(n=8). INaCahBac selectivity for Na^+ is at least as high as traditional Nav channels (1, 14).

Test [2] concerns CHO-K1 cells or COS-7 cells. Put plainly: Expression, voltage- and time-dependence of wt and mutant NaChBac (Example 2). The text has this:
NaChBac was cloned from Bacillus halodurans C-125 DNA by the polymerase chain reaction (PCR; BAB05220) (Ren, Navarro et al. 2001). The NaChBac construct containing an open reading frame of 274 amino acid residues was subcloned into a pTracer-CMV2 vector (Invitrogen, Carlsbad, Calif.) containing enhanced green fluorescent protein (eGFP). The skeletal muscle Na^+ channel SKM1 (M26643) was used in comparison to NaChBac under identical recording conditions and determinations of permeability ratios. Mutations were introduced into the NaChBac cDNA by site-directed mutagenesis (Quickchange™ site-directed mutagenesis kit; Stratagene; La Jolla, Calif.). All mutations were confirmed by DNA sequencing and restriction digestion. Wild-type NaChBac and mutant cDNAs were transfected into CHO-K1 cells or COS-7 cells with LipofectAMINE 2000 (Life Technologies, Rockville, Md.). Transfected cells were identified by fluorescence microscopy and membrane currents were recorded 24 to 48 hours after transfection.
Unless otherwise stated, the pipette solution contained (in mM); 147 Cs, 120 methanesulfonate, 8 NaCl, 10 EGTA, 2 Mg^2+-adenosine triphosphate, and 20 HEPES (pH 7.4). Bath solution contained (in mM); 140 NaCl, 10 CaCl2, 5 KCl, 10 HEPES (pH 7.4), and 10 glucose. For some experiments, NaCl was isotonically replaced by CaCl2.
The voltage dependence of NaChBac and mutants channel activation was determined from a holding potential of −100 mV. Instantaneous tail current were measured at −100 mV after a test potential of 40 ms duration. Normalized tail current amplitude was plotted vs. test potentials and fitted with a Boltzmann function. Measurements of steady state inactivation for NaChBac and mutants channel were resolved using 2 s prepulses and 1 s test pulse to −10 mV, 0 mV or +20 mV depending on the mutant's peak voltage. Cells were held at −100 mV for 20 s between pulses to allow the recovery from inactivation. Normalized test current amplitude was plotted vs. prepulse potential and fitted with a Boltzmann function. The activation and steady state inactivation curve were fitted by the Boltzmann equation: I=Imax−(Imax−Imin)/(1+exp((V−V1/2)/k)) where Imax and Imin are the maximum and minimum current values, V is the test voltage, V1/2 is the voltage activation midpoint and k is the slope factor.
Whole-cell currents were recorded using an Axopatch 200B (Axon Instruments, Union City, Calif.) amplifier. Data were digitized at 10 or 20 kHz, and digitally filtered off-line at 1 kHz. Patch electrodes were pulled from borosilicate glass and had resistances of 2-5 MΩ. All experiments were conducted at 22°±2° C. For CHO cells, cell capacitance was 7.6±0.3 pF and for COS-7 cells was 13.9±0.6 pF. […] Series resistance (Rs) was compensated up to 90% to reduce all series resistance errors to <5 mV. Cells in which […] were discarded. Pooled data are presented as means±SEM. Statistical comparisons were made using two-way analysis of variance (ANOVA) and two-tailed t-test with Bonferroni correction; P<0.05 indicated statistical significance.

The subject of test [3] is CHO-K1 or COS-7 cells. Description: Whole-cell current, activation, inactivation and recovery of NaChBac (Example 1).
Test [4] relates to CHO-K1 or COS-7 cells. Description: Single channel properties of NaChBac, inside-out patch. An excerpt:
The single channel properties of NaChBac were studied in the inside-out patch configuration. Solutions were the same as used in whole-cell recording except that the pipette and bath solutions were reversed. The unitary single channel conductance was best fit with a slope of 12 pS±1 pS (n=7 cells). Consistent with the whole-cell current, single channels were activated by depolarization and both open and closed times varied as a function of voltage (not shown). An ensemble average of single channel currents from 5 cells resembled whole cell INaChBac with τact=10±3.5 ms and τinact=203±43 ms (FIG. 2D).

Where [5] appears, read: calculated from measured Erev, n=8.

Marks after values point to notes of the source that are not given here. A value given as a limit tells only on which side of the number the result lay.

B1: NaChBac: bacterial voltage-sensitive Na+-selective ion channel from Bacillus halodurans, 274 amino acids, SEQ ID NO: 1; pore residues 190-195 LESWAS (protein)
chain: MKMEARQKQNSFTSKMQKIVNHRAFTFTVIALILFNALIVGIETYPRIYADHKWLFYRIDLVLLWIFTIEIAMRFLASNPKSAFFRSSWNWFDFLIVAAGHIFAGAQFVTVLRILRVLRVLRAISVVPSLRRLVDALVMTIPALGNILILMSIFFYIFAVIGTMLFQHVSPEYFGNLQLSLLTLFQVVTLESWASGVMRPIFAEVPWSWLYFVSFVLIGTFIIFNLFIGVIVNNVEKAELTDNEEDGEADGLKQEISALRKDVAELKSLLKQLK
modifications: Bacillus Halodurans
notes: pore residues 190-195 LESWAS
As for B1, in test [1], the “slope of Erev as a function of [Na+]o” value turned out to be 57.8 mV/decade. For the same molecule, the “inward current in isotonic [Ca2+]o relative to that in normal [Na+]” value in test [1] (105 mM Ca2+) is reported as < 6%. The molecule further yielded a peak current in test [1] (140 mM [Na+]o/1 mM [Ca2+]o) of 1430 pA. The current density in test [1] (140 mM [Na+]o/1 mM [Ca2+]o, n=8) is on record as 135.9±11 pA/pF. Besides, in test [1] (setting [5]), the “relative selectivity PNa/PCs” value was 383±56 and the “relative selectivity PNa/PK” value is recorded as 171±16. Besides, the “relative selectivity PNa/PCa” value in test [1] (calculated from measured Erev, n=12) is listed as 72±10. In test [1] (isotonic [Ca2+]o), the peak current turned out to be 87 pA. In test [1] (isotonic [Ca2+]o (105 mM Ca2+), −10 mV, n=8), this molecule displayed a current density of 7.6±0.9 pA/pF. Moreover, the “current in COS-7 cells relative to CHO-K1 cells” value in test [2] lay within 4 to 6 times. For the same molecule, in test [2] (24-48 hours after transfection), the “GFP expressing/transfected cells with substantial or detectable currents” value is “More than 98%”. In addition, in test [2] (Boltzmann fit of tail currents), the V1/2 act is listed as −22 mV. In test [2] (membrane voltage −10 mV), the τact is given as 12.9 ± 0.4^a ms and the τinact is given as 166.0 ± 13^a ms. Moreover, the kact in test [2] (slope factor of activation) turned out to be 7 mV/e fold. Moreover, the V1/2 inact in test [2] (steady state inactivation, 2 s prepulses) is given as −40 mV. Besides, in test [3], the “voltage of 50% steady-state inactivation” value is on record as −40 mV. Also, in test [3] (at −10 mV, n=32), the “activation τ” value was determined as 12.9 ± 0.4 ms and the “inactivation τ” value was found to be 166 ± 13 ms. The “reversal potential of INaChBac” value in test [3] (whole-cell, ENa=+72 mV) is on record as “+70 mV”. Moreover, in test [4] (5 cells), the “τact of ensemble average of single channel currents” value came to 10 ± 3.5 ms and the “τinact of ensemble average of single channel currents” value is 203 ± 43 ms. Further, in test [4] (inside-out patch, n=7 cells), the “unitary single channel conductance” value came out at 12 pS.
